± gives the uncertainty stated by the source.

A short description of the series: amyloid nucleation score (Sup35N fusion, yeast selection) (log enrichment); library NNK3; higher = more nucleation; inactive = no reads after selection. In outline: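 The nucleation score is the DiMSum log enrichment of output over input reads, centred on the mode score of non-aggregating sequences. Only sequences with 100 or more input reads were scored, using Illumina sequencing of input and output plasmid inserts. Psi-negative yeast expressing Sup35N fused to peptides of 20 random codons were induced 24 hours with 100 μM copper sulfate and grown 7 days at 30°C on medium lacking adenine and uracil.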
As for FVIVYAMCKLYLMEKMRLIS, the amyloid nucleation score result is “inactive”. The result for SMNRV reads “inactive”. FQFNILNSVSGLCICYDSGH yielded an amyloid nucleation score of 3.41 ± 0.081.

In the case of SFSYDTRVDVSAILQSQNSL, the amyloid nucleation score result is “inactive”. For the substance FKRCSSIVRGWSS, the amyloid nucleation score entry is “inactive”. Then STVFDFSTLNFFCKSCSIFW, with 2.22 ± 0.087; and LVTIYW, with “inactive”. Then GWGVHWFYIMVINHLF, with “inactive”; and GNKQVVNWDGYF, with -0.431 ± 0.96; and LLDKVLSEPKTSQDRSENVA, with -0.696 ± 1.1.

As to FPGCSRENLTVGLSVTRTEG, the amyloid nucleation score result is “inactive”. Consider WCSGLPGLNRWSSTIPICCY, for which the amyloid nucleation score result is “inactive”. The result for IYPVNFGWLLGFCAHPAIYD reads “inactive”; that for YLYVRYTFRYWVVNYRYNNG, “inactive”; that for SVVRVCSSCIVDYRMCESK, 0.927 ± 0.14.

SKRARVKWSTQPHFVRYLLE: the amyloid nucleation score result was “inactive”.

CIYCTSSL registered an amyloid nucleation score of 0.519 ± 0.21.

As to NRRKLYKGSCGLTFRGSRER, the amyloid nucleation score result is “inactive”. Then SQGGFRNMWR, with “inactive”; and LIARALFNSKWQDTSLSL, with “inactive”. With LYIGQGSMIFFYSVVGFSAC, the amyloid nucleation score came to 2.36 ± 0.087. The result for GVRHRLAVFQYMFTHVLWTM reads “inactive”; that for LVLMSEGFM, “inactive”. For AEHHYAFAFTEF, the amyloid nucleation score entry is “inactive”.

As to VARSSQSISSMHMTMRYKCA, the amyloid nucleation score result was “inactive”. The substance KVKRFY came in with an amyloid nucleation score of 1.17 ± 0.19. Turning to RPRLYFLTSNLKTQCAVHNA, the amyloid nucleation score result is “inactive”.

For the substance KTKQIYDGPLGHSYADKCNV, the amyloid nucleation score result was “inactive”. Take NYRWTWPMPTQEALTPNSDS: the amyloid nucleation score result was “inactive”. As to SSLAGMQEDC, the amyloid nucleation score result is “inactive”. In the case of ESYRTKFIVFGWGL, the amyloid nucleation score stood at 0.835 ± 0.12. Then FPELSGDYLVIRMTVQFWSV, with “inactive”; and VKVFFPIVRCDTYHIYKQWG, with 2.51 ± 0.053; and VRRDLGFFSRNVT, with “inactive”.

AGKHFAHSGLFLVCNYTSRT: the amyloid nucleation score entry is “inactive”. The result for SWISR reads “inactive”; that for YHCNGPGSLWSTNLACRSME, “inactive”.

As for VSRVSLKRRYALM, the amyloid nucleation score is -1.13 ± 2.5.

Take FLGTHEGTDRLLWCVIEEKG: the amyloid nucleation score result was “inactive”.

VPGMSAVCKMGLLLDVGVHE: the amyloid nucleation score entry was “inactive”. Then ISALKQSS, with “inactive”. Then TGVVMCLGIEMINDYIPVLN, with “inactive”. Take MDMLMLMGMALLIDSNVQAK: the amyloid nucleation score result is “inactive”. As to NDVSRNLSMFNY, the amyloid nucleation score entry is “inactive”. The result for TPRLSMDHTFVRWDCV reads “inactive”; that for TNLWFKNLSMFMGIVSLART, “inactive”. The result for LHHMHYSLKGS reads “inactive”; that for MSFRIVFLPC, “inactive”.

Regarding CSMVSWLIHCANMHRKTSTS, the amyloid nucleation score entry is “inactive”.

Consider CQISWL, for which the amyloid nucleation score result is “inactive”.

Take HGERSDKMLDSGSPYMAPSG: the amyloid nucleation score result is “inactive”. Regarding KKDQTMVES, the amyloid nucleation score result is “inactive”. Turning to CPVTIYSVYNTASVKALFLR, the amyloid nucleation score entry was “inactive”. YWSNSYGIECCRLVQQAPTE: the amyloid nucleation score was -0.132 ± 0.33. The result for NMLCTSL reads 1.21 ± 0.11; that for IYVDVNSDP, “inactive”; that for CLELK, -0.204 ± 1.1. Regarding VSTRFFSACTLHFQSSMPYC, the amyloid nucleation score entry was “inactive”. In the case of TSLEN, the amyloid nucleation score result was “inactive”. Then MRLVACA, with “inactive”; and AIAWYLLLHSRRMIWCINCP, with “inactive”. Then YMNSTFQMFD, with 0.829 ± 0.19; and FLLVTSRSEEAPLATETYRL, with “inactive”; and GNWTQ, with “inactive”. The result for CSIWLCNKNVQIAN reads “inactive”; that for VVVLYFVSHWTNRMSYSTRL, “inactive”. Take QVDHNWF: the amyloid nucleation score result is “inactive”. The result for HWMVSCYFSVRLRARLSRRG reads “inactive”; that for FPDTALLGCNCLFCLEGDGL, “inactive”.

Substance NVVLSVGMFLLKWS had an amyloid nucleation score of 1.31 ± 0.09.

With CIFLDGVAPFWMGESRWRSG, the amyloid nucleation score entry is “inactive”. For RMWLD, the amyloid nucleation score result is “inactive”. Then DVALTWPCYVDTTKCQMIMY, with “inactive”; and SCSCESCYKGVAEYDLVKDV, with 1.32 ± 0.16; and NFLNCVFRYIYD, with 2.54 ± 0.067. Then RWSTLIVTCSAGPSDFVCDG, with “inactive”.

In the case of IFGFDYIAPFFCVTFGIRRV, the amyloid nucleation score result was “inactive”. Turning to FPYVLVSTPVSPPICW, the amyloid nucleation score result was “inactive”. In the case of THGREGYASSSSSLGPGSIS, the amyloid nucleation score was -0.08 ± 0.44. Regarding VSDLEERSSILG, the amyloid nucleation score result is “inactive”. For TIWSCMCVMWITRPSNTRRP, the amyloid nucleation score entry is “inactive”. For THYEVWGLT, the amyloid nucleation score result is “inactive”. The result for SVRHSWTMSVFFSDRNALAN reads “inactive”; that for CTFFGKLLSCFVYSGMVQ, “inactive”; that for NGWLVMLYIKLTGFFP, “inactive”. The result for HISCMCLIYIV reads 2.24 ± 0.088; that for LEWRMNVLMLFRNVMVHIAS, “inactive”; that for MRLNGFLRRKGRVSNMWHTG, “inactive”. As to RLLVGFIWSWLGISYFTRFL, the amyloid nucleation score entry is “inactive”. In the case of IMPRPIKSRLNKNFLWAVVC, the amyloid nucleation score result is “inactive”. In the case of RTLCRLWTLCCRCRSYALFR, the amyloid nucleation score entry was “inactive”.

For the substance RSMYR, the amyloid nucleation score entry is “inactive”. The result for VVPIVWHTGSSRVYTEGVLM reads -0.65 ± 1.3; that for SLVTRGLPVCRFRSDSDYSI, “inactive”. The result for GITIWLYNPYFL reads “inactive”; that for AGVNLRTIRVMYRLPIISYL, “inactive”. Then NYDVPSDLRWEMLWVAYCRR, with “inactive”.

For the substance QVCFQSWDASRSRYRHRLKR, the amyloid nucleation score worked out at 0.625 ± 0.21. The result for SGCDLLFFYYHRRTVPLANW reads “inactive”; that for LVVTYWEMRLVPADAK, “inactive”. The result for MKCCFSTLIPAKYNLDTLIL reads “inactive”. With VFECLTFF, the amyloid nucleation score was -0.872 ± 1. Consider IPYDSSLLNSSNVCYLI, for which the amyloid nucleation score result was “inactive”. The result for WQCGNVLLSYAQYNAVLVAW reads “inactive”. The result for RTNILVGRIR reads “inactive”; that for SCIFPILGVFADDFTMTFTW, “inactive”.

Take FHSQYEGAEERSPRNVLMAR: the amyloid nucleation score result was “inactive”.

With AKSVSLHIPTCRYHLTYIAF, the amyloid nucleation score result is “inactive”. IRDLSLNQSGYFTFVTCWRC: the amyloid nucleation score amounted to 2.73 ± 0.067. LSVDRL gave an amyloid nucleation score of -0.632 ± 0.9. The substance YFVTTVKVEALFQ gave an amyloid nucleation score of -0.23 ± 0.55.

Take HNVAYCSGGFCDPYSNFREG: the amyloid nucleation score entry is “inactive”.

For the substance HIWTIRVMFWRELRLLITPI, the amyloid nucleation score entry is “inactive”. Then RSTAPGTGSDIPFEDSLRQM, with “inactive”; and SFSFSKSNVSERDLCSTCTV, with “inactive”. Then EFFCWIDSSIGSRYFSMTED, with “inactive”; and CVMGVG, with 0.312 ± 0.31; and KSVQKMAWTVRCELYLHTG, with “inactive”.

Regarding SNHIDAVNHDGHSHPYHTTR, the amyloid nucleation score result is “inactive”. For CSQPCRHFYKVKGGYTFKCL, the amyloid nucleation score result was “inactive”. The result for GVGVMLSYKGIFMHLSFVGE reads “inactive”; that for THMATNLAGMYREAHGSGGI, “inactive”; that for LCNWRAVDCDD, -0.151 ± 0.59. GNYRLSLHVVL had an amyloid nucleation score of 1.21 ± 0.18.

ITDLYF: the amyloid nucleation score result is “inactive”. Then MWGSM, with “inactive”; and FFLPSG, with “inactive”. RWDVEIPNLQICKRT: the amyloid nucleation score entry was “inactive”. The substance YPLYASTS had an amyloid nucleation score of 1.07 ± 0.16. The result for FCFNGRCIFFYSSSLYVFGF reads “inactive”; that for FYLFIVVRMVVLVTDVIVVG, “inactive”; that for TNVTANGVKPHPYPMRSPAT, “inactive”.

As to SFEPRSLMYNTNRGI, the amyloid nucleation score result was “inactive”.

The record behind these values is the supplement of paper PMC12042874.
